T1: human TG2 (Homo sapiens, UniProt P21980)
T1 sequence (P21980 1-687): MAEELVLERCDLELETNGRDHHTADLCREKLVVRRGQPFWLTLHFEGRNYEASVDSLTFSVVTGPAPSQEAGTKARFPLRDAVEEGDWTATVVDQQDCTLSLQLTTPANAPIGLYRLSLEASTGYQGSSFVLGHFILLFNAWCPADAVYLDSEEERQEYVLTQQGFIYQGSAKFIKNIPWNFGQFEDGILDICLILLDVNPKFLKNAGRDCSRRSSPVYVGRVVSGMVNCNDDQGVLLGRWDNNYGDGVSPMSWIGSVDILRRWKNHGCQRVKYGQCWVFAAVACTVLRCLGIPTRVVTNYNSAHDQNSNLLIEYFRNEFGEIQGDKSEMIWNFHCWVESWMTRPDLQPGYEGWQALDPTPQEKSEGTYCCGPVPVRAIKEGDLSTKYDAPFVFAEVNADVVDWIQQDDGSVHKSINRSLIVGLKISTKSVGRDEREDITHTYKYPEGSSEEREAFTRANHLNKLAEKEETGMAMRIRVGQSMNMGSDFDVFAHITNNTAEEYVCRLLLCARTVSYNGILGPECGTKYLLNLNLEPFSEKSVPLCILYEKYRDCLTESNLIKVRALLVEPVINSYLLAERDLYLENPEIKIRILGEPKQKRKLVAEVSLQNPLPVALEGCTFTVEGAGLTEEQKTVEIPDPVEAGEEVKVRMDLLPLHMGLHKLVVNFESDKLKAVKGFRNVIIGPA

B1: hAB005: humanised AB1 antibody; heavy chain version RHA with light chain version RKJ (antibody, V domains shown)
VH: EVQLLESGGGLVQPGGSLRLSCAASGFTFSSSAMSWVRQAPGKGLEWVSTISVGGGKTYYPDSVKGRFTISRDNSKNTLYLQMNSLRAEDTAVYYCAKLISLYWGQGTLVTVSS
VL: DIQMTQSPSSLSASVGDRVTITCKASQDINSYLTWFQQKPGKAPKSLIYRTNRLFDGVPSRFSGSGSGTDFFLTISSLQPEDFATYYCLQYDDFPYTFGQGTKVEIK
B2: cDC001: chimeric DC1 antibody: murine variable regions, human IgG1 and human kappa (antibody, V domains shown)
VH: EVQLVESGGGLVKPGGSLKLSCAASGFTLSTHAMSWVRQTPEKRLEWVATISSGGRSTYYPDSVKGRFTISRDNVKNTLYLQLSSLRSEDTAVYFCARLISTYWGQGTTLTVSS
VL: DITMTQSPSSIYASLGERVTITCKASQDINSYLTWFQQKPGKSPKILIYLVNRLVDGVPSRFSGSGSGQDYALTISSLEYEDMGIYYCLQYDDFPYTFGGGTKLEIK
B3: hBB001BB: humanised BB7 antibody (heavy chain hBB001HB, light chain hBB001KB by name) (antibody, V domains shown)
VH: B1 VH with F27I, T28I, S49A, V53S, G56R, K57S, I70V, N74S, L102P
VL: B1 VL with Q3K, S46T, R50L, F55M, T69Q, D70E, F72L, D92V
B4: hAB004: humanised AB1 antibody; heavy chain version RHA with light chain version RKE (antibody, V domains shown)
VH: B1 VH
VL: B1 VL with D1E, Q3V, M4L, F36Y, S46L, L73F, A84G, Q100G, V104L

Numbering of substitutions follows the chain as printed.

The first assay relates to WI-38 cells. Description: Scratch wound assay in WI-38 cells. Format: cell-based, human. The note with it: serum free media; Cytochalasin D 0.1 μM, R281 100 μM, Z DON 10 μM and 100 μM, Cub7402 5 μg/ml. The protocol:
WI-38 cells (normal human lung fibroblasts ATCC cat#CCL-75) were plated in a 96 well Image Lock plate (Essen cat#4379) at 2×10^4/well in αMEM media (Life Technologies cat#32561) with 10% FBS and grown O/N to >97% confluence. Cells were washed 2× with αMEM media without serum and a scratch wound was generated using an Essen Wound Maker and the manufacturers protocol. The media was removed and replaced with 95 μl/well serum free media. Controls and test antibodies were added to the wells. The plate was placed in an Essen Incucyte and the closure of the wound was analysed using the scratch wound protocol.
Cytochalasin D was used as an assay control at 0.1 μM. R281, a small molecule non-specific transglutaminase inhibitor, was tested at 100 μM. Z DON, a peptide non reversible transglutaminase inhibitor was tested at 10 μM and 100 μM. The commercially available TG2 antibody Cub7402 (ABcam cat#ab2386) was tested at 5 μg/ml. Antibodies of the invention were tested on at least three occasions at various concentrations as indicated. In all experiments controls were Cytochalasin D at 0.1 uM and ZDON at two concentrations to show a dose dependant effect.
On to B1, for which the “effect on wound closure” value is recorded as “inhibited wound closure”.
Same read-out and setting: for B2 the value was “inhibited wound closure”.

A further assay concerns Cynomolgus TG2. Description: Biacore (SPR) affinity, cynomolgus TG2. In kind it is binding, cynomolgus monkey. The note with it: +Ca^2+ (1 mM CaCl2 running buffer; includes rows without a Ca mark). The protocol:
(§1) Recombinant human TG2 was obtained from Zedira GmbH (cat. no.: T002). Recombinant cynomolgus monkey TG2 was obtained from Trenzyme. Surface plasmon resonance (SPR) was measured on a Biacore T200 instrument (GE Healthcare). CM5 chips (GE Healthcare cat. no.: BR-1006-68) were coated with monoclonal mouse anti-human IgG1 (Fc) (MAH) antibody (GE Healthcare cat. no.: BR-1008-39) by amine-coupling as described in the manufacturers instructions. HBS-EP+ buffer (0.01 M HEPES, 0.15 M NaCl, 3 mM EDTA, 0.05% v/v Surfactant P20) and HBS-P+ buffer (0.01 M HEPES, 0.15 M NaCl, 0.05% Surfactant P20) were purchased from GE Healthcare as 10× stocks (cat. nos.: BR-1006-69 and BR-1006-71). Calcium Chloride solution was obtained from Sigma Aldrich (cat. no.:21115).
(§2) The method employed to determine the affinity of the anti-TG2 antibodies involved the capture of the chimeric or humanised antibodies on a MAH coated CM5 chip, followed by the injection of a series of TG2 samples in running buffer. The running buffer was 1×HBS-P+ containing 1 mM CaCl2, or 1×HBS-EP+ for calcium-free experiments. Antibody capture was carried out for a contact time of 120 seconds at a flow rate of 10 μl/min resulting in the capture of approximately 40-80 RU. TG2 was injected over the immobilised antibody at concentrations ranging from 25 nM to 400 nM with a contact time up to 600 seconds at a flow rate of 30 μl/min. Dissociation of TG2 was typically measured for up to 5400 seconds (1.5 hours). Regeneration of the chip was then performed using 3 M MgCl2, for a contact time of 60 seconds at a flow rate of […], followed by a 300 s stabilisation period before the next sample. For each of human and cynomolgus monkey TG2, at least 5 injections at a variety of concentrations were performed in at least two separate experiments.
(§3) Kinetic data were exported from the Biacore T200 Evaluation Software and analysed using GraphPad Prism, where the association phases and dissociation phases were analysed separately using a one phase association model and one-phase exponential decay model respectively. Association rates (kon) were calculated for each curve individually, and dissociation rates (koff) values from the long dissociation phase data collected. Where koff values were calculated to be <1×10^−5 s^−1, values were set at 1×10^−5 for analysis, as rates slower than this could not be estimated accurately. Values for kon and koff are presented in the tables below as the mean of the individual calculated values for each antibody for each TG2 species from multiple concentrations +/−1 standard deviation. KD values are calculated as mean koff/mean kon.
(SPR reads the build-up and loss of mass on a sensor chip optically.)
Usually koff stands for a measure of how fast the partners let go of each other. A high value points to a short-lived complex. A word on the kon: it is the second-order rate constant of association. Lower therefore signals slower complex formation. Regarding B3, the koff stood at 3.7e-05 s⁻¹ and the kon worked out at 270000 M⁻¹ s⁻¹.
In the same order, the values of B4 are 1.8e-05 s⁻¹ and 160000 M⁻¹ s⁻¹.
As to B1, the koff came to 3.4e-05 s⁻¹ and the on-rate (kon) was found to be 140000 M⁻¹ s⁻¹.
In the case of B2, the koff is on record as <10^−5 s^−1 and the association rate constant (kon) came out at 420000 M⁻¹ s⁻¹.

The target in the next assay is T1, human TG2. Description: Fluorescence-based transglutaminase assay (dansylated lysine into N,N-dimethylated casein), human TG2. In kind it is biochemical. Further details: purchased Zedira GmbH T002. The note with it: 1 nM human TG2. As to the method: Transglutaminase activities of purified human (Zedira) or cynomogolus monkey TG2 enzymes (Trenzyme) were measured by incorporation of dansylated lysine K×D (Zedira) into N,N-dimethylated casein (DMC, Sigma). Human or cynomogolus monkey TG2 were diluted in transamidation buffer (25 mM HEPES pH 7.4 containing 250 mM NaCl, 2 mM MgCl2, 5 mM CaCl2, 0.2 mM DTT and 0.05% v/v Pluronic F-127) to 1 nM and 10 nM respectively and mixed with various concentrations of protein-A purified murine, chimeric or humanised TG2 antibodies for 180 min at room temperature in 384-well black microtiter plates (Corning). Reactions were initiated by addition of DMC and K×D to a final concentration of 10 uM and 20 uM respectively and a final reaction volume of 30 ul, and allowed to proceed at RT for 180 min and the increase in fluorescence (RFU) (excitation at 280 nm, emission 550 nm) monitored using a Tecan Safire^2 plate reader. Data were normalised to percentage activity where % activity=(RFU test antibody−RFU low controls)/RFU high controls−RFU low controls)×100, where low controls contained all components except enzyme and high controls contained all components except antibody.
Antibody dose response curves were plotted using GraphPad prism software and fitted using a 4-parameter logistical model to return IC50 and other statistical parameters. The results are illustrated in FIGS. 29 to 33.
Consider B3, for which the “inhibition of human TG2 transamidation (in words)” value (“inhibition” for short) was “potent inhibition of TG2 activity in the low nanomolar range”.
As to B4, the “inhibition” value was “potent inhibition of TG2 activity in the low nanomolar range”.
As to B1, the “inhibition” value was “potent inhibition of TG2 activity in the low nanomolar range”.
With B2, the “inhibition” value was “potent inhibition of TG2 activity in the low nanomolar range”.

The target of the next assay is T1, human TG2. Description: ELISA assay for TG2 binding, human TG2.
Settings: not given
On the set-up: purchased Zedira GmbH T002. The protocol:
Antibody binding to human and cynomolgus monkey TG2 was determined in an ELISA assay. Clear polystyrene “Maxisorp” 96-well plates (Nunc) were coated with 50 ng purified human or cynomogulus monkey TG2 in 50 μl 0.05 M carbonate-bicarbonate buffer pH 9.6 at 4° C. overnight. Control wells were coated with 50 μl 100 μg/ml bovine serum albumin (BSA). Plates were washed 3× with 300 μl phosphate-buffered saline pH7.4 (PBS) containing 0.1% Tween 20 (PBST) and blocked with 300 μl 3% w/v Marvel skimmed milk in PBS for 1 hour at room temperature. After 3× wash with PBST, 50 μl protein-A purified chimeric or humanised anti-TG2 antibodies or human IgG1 kappa isotope control antibody or CUB7402 (Abcam) were serially diluted 4-fold from a top concentration of 50 nM in PBS, and added to the plate in duplicate. […] After 3× washes with PBST, the plates were developed with 50 μl TMB substrate (Sigma) for 5 min at room temperature before stopping the reaction with 25 μl 0.5M H2SO4 and reading absorbance at 450 nm in a microtiter plate reader (BioTek EL808). Dose response curves were analysed and EC50 values and other statistical parameters determined using a 4-parameter logistical fit of the data (GraphPad Prism).
Background: An ELISA detects its analyte on a solid surface through an enzyme-linked reagent.
For the molecule B3, the “ELISA binding to human TG2 (in words)” value is recorded as “comparable EC50 values”.
Take B4: the “ELISA binding to human TG2 (in words)” value was “comparable EC50 values”.

In the next assay the target is T1, human TG2. Description: Biacore (SPR) affinity, human TG2. Further details: purchased Zedira GmbH T002. Format: binding. The note with it: +Ca^2+ (1 mM CaCl2 running buffer; includes rows without a Ca mark). As to the method: as §1, §2, §3
Take B3: the dissociation rate constant (koff) is <10^−5 s^−1 and the kon was 240000 M⁻¹ s⁻¹.
The like results for B4 were, in that order, 2.4e-05 s⁻¹ and 200000 M⁻¹ s⁻¹.
For B1, the off-rate constant (koff) is given as <10^−5 s^−1 and the kon came to 190000 M⁻¹ s⁻¹.
For B2, the koff was <10^−5 s^−1 and the kon worked out at 320000 M⁻¹ s⁻¹.
